The record followed here is article PMC10840515.

This assay deals with HLA-DR1 (HLA-DRA*0101, HLA-DRB1*0101) (human). Put plainly: ELISA. A general note: ELISA stands for enzyme-linked immunosorbent assay.

What is called IC50 is the concentration at which inhibition is half-maximal. Higher therefore signals lower potency. In the case of “influenza A virus hemagglutinin (HA) peptide HA305-319”, the IC50 was 29 nM.
